Values belong to the molecule of their own block, whether it stands above or below them.
Experiments:
[1] = target: EEF1G (eukaryotic elongation factor 1 subunit gamma), endogenous (human (endogenous in HEK293T)) (UniProt P26641); experiment: mass photometry; EEF1S complex recovered by glutathione-Sepharose from HEK293T lysate and run on SEC (Superdex 200); stoichiometry from the mass (~270 kDa) and Coomassie staining; complex formed in cells and co-purified
[2] = target: endogenously Strep-tagged EEF1G (human (endogenous in HEK293T)) (UniProt P26641); experiment: mass photometry; EEF1H complex recovered by affinity purification of endogenous strep-tagged EEF1G from HEK293T lysates; stoichiometry predicted from molecular weight of components and Coomassie staining; complex formed in cells and co-purified
endogenously Strep-tagged EEF1G (human (endogenous in HEK293T)), sequence (P26641 whole entry): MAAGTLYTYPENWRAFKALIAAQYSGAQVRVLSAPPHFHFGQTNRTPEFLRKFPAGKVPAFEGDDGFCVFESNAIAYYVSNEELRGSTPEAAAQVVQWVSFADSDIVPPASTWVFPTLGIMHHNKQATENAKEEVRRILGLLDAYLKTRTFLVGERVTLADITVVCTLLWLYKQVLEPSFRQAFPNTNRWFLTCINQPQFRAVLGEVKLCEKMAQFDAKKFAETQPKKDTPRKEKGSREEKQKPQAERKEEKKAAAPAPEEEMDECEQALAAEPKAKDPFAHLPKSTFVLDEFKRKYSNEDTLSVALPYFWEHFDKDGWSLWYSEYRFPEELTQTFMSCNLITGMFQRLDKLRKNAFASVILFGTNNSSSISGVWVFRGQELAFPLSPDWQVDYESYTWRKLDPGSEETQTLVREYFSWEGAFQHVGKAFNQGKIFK

[3] = target: T1, endogenously Strep-tagged EEF1G (human (endogenous in HEK293T), UniProt P26641 1-437); experiment: as above; conditions: partners not purified
T1 construct: EEF1G, human, endogenous locus of HEK293T edited to carry an internal Twin-Strep tag in the unstructured region between the GST and C-terminal domains; also called strep-EEF1G; source: endogenous locus tagged by CRISPR-Cas9 knock-in, HEK293T; not shown: Twin-Strep, internal (in the unstructured region between the GST and C-terminal domains), kept
T1 sequence (P26641 whole entry, the tested form may be a part): as the sequence (P26641 whole entry) above

[4] = target: T2, EEF1G (eukaryotic elongation factor 1 subunit gamma), endogenous (human (endogenous in HEK293T), UniProt P26641 1-437); experiment: mass photometry; EEF1S complex recovered by glutathione-Sepharose from HEK293T lysate and run on SEC (Superdex 200); stoichiometry from the mass (~270 kDa) and Coomassie staining; complex formed in cells and co-purified; conditions: partners not purified
T2 construct: EEF1G, human, endogenous untagged protein in HEK293T lysate, recovered on glutathione-Sepharose; source: endogenous, HEK293T lysate
T2 sequence (P26641 whole entry): as above

EEF1G (eukaryotic elongation factor 1 subunit gamma), endogenous (human (endogenous in HEK293T)), sequence (P26641 whole entry): as above

stoichiometry N [1]: 1
copies in the EEF1H complex (with six copies of EEF1G) [2]: 6 copies
Molecule: EEF1A, endogenous (from UniProt P68104 1-462) (natural protein)

copies in the EEF1H complex (with six copies of EEF1G) [3]: ~4 copies
stoichiometry N [4]: ~1
B1: EEF1B, endogenous (natural protein, human (endogenous in HEK293T), UniProt P24534 1-225, looked up)
chain: MGFGDLKSPAGLQVLNDYLADKSYIEGYVPSQADVAVFEAVSSPPPADLCHALRWYNHIKSYEKEKASLPGVKKALGKYGPADVEDTTGSGATDSKDDDDIDLFGSDDEEESEEAKRLREERLAQYESKKAKKPALVAKSSILLDVKPWDDETDMAKLEECVRSIQADGLVWGSSKLVPVGYGIKKLQIQCVVEDDKVGTDMLEEQITAFEDYVQSMDVAAFNKI
notes: EEF1B (guanine nucleotide exchange factor subunit of EEF1H), human, endogenous in HEK293T; source: endogenous, HEK293T lysate

copies in the EEF1H complex (with six copies of EEF1G) [3]: ~4 copies
B2: EEF1D, endogenous (natural protein, human (endogenous in HEK293T), UniProt P29692 1-281, looked up)
chain: MATNFLAHEKIWFDKFKYDDAERRFYEQMNGPVAGASRQENGASVILRDIARARENIQKSLAGSSGPGASSGTSGDHGELVVRIASLEVENQSLRGVVQELQQAISKLEARLNVLEKSSPGHRATAPQTQHVSPMRQVEPPAKKPATPAEDDEDDDIDLFGSDNEEEDKEAAQLREERLRQYAEKKAKKPALVAKSSILLDVKPWDDETDMAQLEACVRSIQLDGLVWGASKLVPVGYGIRKLQIQCVVEDDKVGTDLLEEEITKFEEHVQSVDIAAFNKI
notes: EEF1D (guanine nucleotide exchange factor subunit of EEF1H), human, endogenous in HEK293T; source: endogenous, HEK293T lysate

copies in the EEF1H complex (with six copies of EEF1G) [3]: ~2 copies
B3: valine tRNA synthase (VARS), endogenous (enzyme, human (endogenous in HEK293T), UniProt P26640 1-1264, looked up)
chain: MSTLYVSPHPDAFPSLRALIAARYGEAGEGPGWGGAHPRICLQPPPTSRTPFPPPRLPALEQGPGGLWVWGATAVAQLLWPAGLGGPGGSRAAVLVQQWVSYADTELIPAACGATLPALGLRSSAQDPQAVLGALGRALSPLEEWLRLHTYLAGEAPTLADLAAVTALLLPFRYVLDPPARRIWNNVTRWFVTCVRQPEFRAVLGEVVLYSGARPLSHQPGPEAPALPKTAAQLKKEAKKREKLEKFQQKQKIQQQQPPPGEKKPKPEKREKRDPGVITYDLPTPPGEKKDVSGPMPDSYSPRYVEAAWYPWWEQQGFFKPEYGRPNVSAANPRGVFMMCIPPPNVTGSLHLGHALTNAIQDSLTRWHRMRGETTLWNPGCDHAGIATQVVVEKKLWREQGLSRHQLGREAFLQEVWKWKEEKGDRIYHQLKKLGSSLDWDRACFTMDPKLSAAVTEAFVRLHEEGIIYRSTRLVNWSCTLNSAISDIEVDKKELTGRTLLSVPGYKEKVEFGVLVSFAYKVQGSDSDEEVVVATTRIETMLGDVAVAVHPKDTRYQHLKGKNVIHPFLSRSLPIVFDEFVDMDFGTGAVKITPAHDQNDYEVGQRHGLEAISIMDSRGALINVPPPFLGLPRFEARKAVLVALKERGLFRGIEDNPMVVPLCNRSKDVVEPLLRPQWYVRCGEMAQAASAAVTRGDLRILPEAHQRTWHAWMDNIREWCISRQLWWGHRIPAYFVTVSDPAVPPGEDPDGRYWVSGRNEAEAREKAAKEFGVSPDKISLQQDEDVLDTWFSSGLFPLSILGWPNQSEDLSVFYPGTLLETGHDILFFWVARMVMLGLKLTGRLPFREVYLHAIVRDAHGRKMSKSLGNVIDPLDVIYGISLQGLHNQLLNSNLDPSEVEKAKEGQKADFPAGIPECGTDALRFGLCAYMSQGRDINLDVNRILGYRHFCNKLWNATKFALRGLGKGFVPSPTSQPGGHESLVDRWIRSRLTEAVRLSNQGFQAYDFPAVTTAQYSFWLYELCDVYLECLKPVLNGVDQVAAECARQTLYTCLDVGLRLLSPFMPFVTEELFQRLPRRMPQAPPSLCVTPYPEPSECSWKDPEAEAALELALSITRAVRSLRADYNLTRIRPDCFLEVADEATGALASAVSGYVQALASAGVVAVLALGAPAPQGCAVALASDRCSIHLQLQGLVDPARELGKLQAKRVEAQRQAQRLRERRAASGYPVKVPLEVQEADEAKLQQTEAELRKVDEAIALFQKML
notes: valine tRNA synthase (VARS), human, endogenous in HEK293T; source: endogenous, HEK293T lysate

Source: article doi:10.1101/2025.10.13.682107, “Oxidative stress sensing by the translation elongation machinery promotes production of detoxifying selenoproteins” (bioRxiv, 2025)
